This experiment has as its target P167L Rho (E. coli, UniProt P0AG30 1-419, P167L). The experiment in a line: pull-down.

B1: his-tagged WT Psu (polarity suppression protein, bacteriophage P4 capsid decorating protein) (natural protein)
chain: MESTALQQAFDTCQNNKAAWLQRKNELAAAEQEYLRLLSGEGRNVSRLDELRNIIEVRKWQVNQAAGRYIRSHEAVQHISIRDRLNDFMQQHGTALAAALAPELMGYSELTAIARNCAIQRATDALREALLSWLAKGEKINYSAQDSDILTTIGFRPDVASVDDSREKFTPAQNMIFSRKSAQLASRQSV
In the case of B1, the binding result is reported as “binds”.

For the origin of these results see publication PMC3821671 (Bacteriophage, 2013).
